In patent US5770396:

How the values were obtained:
rat FcεRI (αβγ2) (rat) [1] = experiment: IgE rosetting assay on cotransfected COS 7 cells
rat FcεRI (αβγ2) (rat) [2] = experiment: IgE rosetting assay, COS 7 cells cotransfected with α, β and γ cDNAs (29 transfections)
[3] = molecular target: COS 7 cells cotransfected with the rat α and β subunits (rat); experiment: IgE rosetting assay, COS 7 cells transfected with α and β cDNAs (2 transfections); by the filing no IgE-binding sites reach the surface
[4] = molecular target: rat FcεRI α subunit (rat); experiment: IgE rosetting assay, COS 7 cells transfected with α cDNA alone (2 transfections); by the filing α does not reach the surface without β and γ
rat FcεRI (αβγ2) (rat) [5] = experiment: IgE rosetting assay, RBL cells (native rat receptor)
rat FcεRI (αβγ2) (rat) [6] = experiment: IgE rosetting assay, cotransfected COS 7 cells; 50 µg/ml rat IgE added 30 minutes before mouse anti-DNP IgE (competitor of mouse anti-DNP IgE)

expression of IgE binding (% of cells) (rat FcεRI (αβγ2) (rat) [1]) | IgE Binding (rosettes/cells counted) (rosettes per 41,238 cells counted) (rat FcεRI (αβγ2) (rat) [2]) | IgE Binding (rosettes/cells counted) (rosettes per 3,504 cells counted) [3] | IgE Binding (rosettes/cells counted) (rosettes per 4,050 cells counted) [4] | IgE Binding (rosettes/cells counted) (rat FcεRI (αβγ2) (rat) [5]) | IgE Binding (rosettes/cells counted) with inhibitor (rosettes per 7,542 cells counted) (rat FcεRI (αβγ2) (rat) [6]) | Substance
5% | 920 | 0 | 0 | 100% |  | mouse IgE anti-DNP (antibody)
 |  |  |  |  | 0 | non-specific rat IgE (antibody)
